Test results as given in article PMC4640189.
Several values for one entry are separate records, joined by “and”; a condition that tells them apart may be missing. Equal values may be shown once.

Molecular target: CARD-deleted NLRC4 (mouse) (UniProt Q3UP24)
Experiment: cryo-EM structure

CARD-deleted NLRC4 (from UniProt Q3UP24 1-1024) (domain or fragment)
blades of the disk (one of them taken to be NAIP2): 11 blades and 12 blades and 10 blades
